Holding throughout (format): ADME
Series [1] has as its target T1, Bleomycin hydrolase (Homo sapiens, UniProt Q13867).
T1 sequence (Q13867 whole entry): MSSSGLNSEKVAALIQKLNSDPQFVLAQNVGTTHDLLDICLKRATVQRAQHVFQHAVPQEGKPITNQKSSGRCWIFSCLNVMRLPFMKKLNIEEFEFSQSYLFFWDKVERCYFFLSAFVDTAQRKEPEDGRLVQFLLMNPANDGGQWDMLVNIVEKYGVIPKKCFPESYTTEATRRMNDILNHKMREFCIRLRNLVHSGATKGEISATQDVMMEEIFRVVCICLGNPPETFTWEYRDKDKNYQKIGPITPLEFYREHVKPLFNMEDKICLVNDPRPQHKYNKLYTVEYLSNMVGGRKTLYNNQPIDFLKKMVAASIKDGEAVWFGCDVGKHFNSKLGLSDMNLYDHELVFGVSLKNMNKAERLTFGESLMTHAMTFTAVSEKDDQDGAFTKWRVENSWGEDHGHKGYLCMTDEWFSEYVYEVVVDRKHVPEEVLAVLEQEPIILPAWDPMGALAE
Kind of series: Substrate activity at recombinant human N-terminal His6-tagged BLMH expressed in Escherichia coli BL21(DE3) assessed as Kcat to Km ratio measured after 1 hr by HPLC-based Michaelis-Menten plot analysis relative to BLM B2.

The target of series [2] is T1, Bleomycin hydrolase. Kind of series: (§1) Substrate activity at recombinant human N-terminal His6-tagged BLMH expressed in Escherichia coli BL21(DE3) measured after 1 hr by HPLC-based Michaelis-Menten plot analysis.
For series [3], the target named is T1, Bleomycin hydrolase. Kind of series: Substrate activity at recombinant human N-terminal His6-tagged BLMH expressed in Escherichia coli BL21(DE3) assessed as Kcat to Km ratio measured after 1 hr by HPLC-based Michaelis-Menten plot analysis.
The target in series [4] is T1, Bleomycin hydrolase. Kind of series: (§2) Substrate activity at recombinant human BLMH expressed in baculovirus infected Sf9 insect cells assessed as Kcat to Km ratio.
Substrate in series [5]: Cc1c(N)nc([C@H](CC(N)=O)NC[C@H](N)C(N)=O)nc1C(=O)N[C@H](C(=O)N[C@H](C)[C@@H](O)[C@H](C)C(=O)N[C@H](C(=O)NCCc1nc(-c2nc(C(=O)NCCCCNC(=N)N)cs2)cs1)[C@@H](C)O)[C@@H](O[C@@H]1O[C@@H](CO)[C@@H](O)[C@H](O)[C@@H]1O[C@H]1O[C@H](CO)[C@@H](O)[C@H](OC(N)=O)[C@@H]1O)c1c[nH]cn1
The description is as §1.

Substrate in series [6]: [H][C@]1(O[C@@H]2[C@H](O[C@@H](c3c[nH]cn3)[C@H](NC(=O)c3nc([C@H](CC(N)=O)NC[C@H](N)C(N)=O)nc(N)c3C)C(=O)N[C@H](C)[C@@H](O)CC(=O)N[C@H](C(=O)NCCc3nc(-c4nc(C(=O)NCCCC(N)CC(=O)NCCCNCCCCN)cs4)cs3)[C@@H](C)O)O[C@@H](C)[C@@H](O)[C@@H]2O)O[C@H](CO)[C@@H](O)[C@H](OC(N)=O)[C@@H]1O
The description is as §1.

Substrate in series [7]: [H][C@]1(O[C@@H]2[C@H](O[C@@H](c3c[nH]cn3)[C@H](NC(=O)c3nc([C@H](CC(N)=O)NC[C@H](N)C(N)=O)nc(N)c3C)C(=O)N[C@H](C)[C@@H](O)CC(=O)N[C@H](C(=O)NCCc3nc(-c4nc(C(=O)NCCCC(N)CC(=O)NCCCNCCCCN)cs4)cs3)[C@@H](C)O)O[C@@H](CO)[C@@H](O)[C@@H]2O)O[C@H](CO)[C@@H](O)[C@H](OC(N)=O)[C@@H]1O
The description is as §1.

Substrate in series [8]: [H][C@]1(O[C@@H]2[C@H](O[C@@H](c3c[nH]cn3)[C@H](NC(=O)c3nc([C@H](CC(N)=O)NC[C@H](N)C(N)=O)nc(N)c3C)C(=O)N[C@H](C)[C@@H](O)[C@H](C)C(=O)N[C@H](C(=O)NCCc3nc(-c4nc(C(=O)NCCC(=N)N)cs4)cs3)[C@@H](C)O)O[C@@H](C)[C@@H](O)[C@@H]2O)O[C@H](CO)[C@@H](O)[C@H](OC(N)=O)[C@@H]1O
Described as §1.

Substrate in series [9]: [H][C@]1(O[C@@H]2[C@H](O[C@@H](c3c[nH]cn3)[C@H](NC(=O)c3nc([C@H](CC(N)=O)NC[C@H](N)C(N)=O)nc(N)c3C)C(=O)N[C@H](C)[C@@H](O)[C@H](C)C(=O)N[C@H](C(=O)NCCc3nc(-c4nc(C(=O)NCCC(=N)N)cs4)cs3)[C@@H](C)O)O[C@@H](CO)[C@@H](O)[C@@H]2O)O[C@H](CO)[C@@H](O)[C@H](OC(N)=O)[C@@H]1O
The series is described as §1.

Substrate in series [10]: [H][C@]1(O[C@@H]2[C@H](O[C@@H](c3c[nH]cn3)[C@H](NC(=O)c3nc([C@H](CC(N)=O)NC[C@H](N)C(N)=O)nc(N)c3C)C(=O)N[C@H](C)[C@@H](O)[C@H](C)C(=O)N[C@H](C(=O)NCCc3nc(-c4nc(C(=O)NCCC[S+](C)C)cs4)cs3)[C@@H](C)O)O[C@@H](C)[C@@H](O)[C@@H]2O)O[C@H](CO)[C@@H](O)[C@H](OC(N)=O)[C@@H]1O
The description is as §1.

Substrate in series [11]: Cc1c(N)nc([C@H](CC(N)=O)NC[C@H](N)C(N)=O)nc1C(=O)N[C@H](C(=O)N[C@H](C)[C@@H](O)[C@H](C)C(=O)N[C@H](C(=O)NCCc1nc(-c2nc(C(=O)NCCCCNC(=N)N)cs2)cs1)[C@@H](C)O)[C@@H](O[C@@H]1O[C@@H](CO)[C@@H](O)[C@H](O)[C@@H]1O[C@H]1O[C@H](CO)[C@@H](O)[C@H](OC(N)=O)[C@@H]1O)c1c[nH]cn1
Described as §2.

The values that follow come from ChEMBL document CHEMBL4229398, “Activities of recombinant human bleomycin hydrolase on bleomycins and engineered analogues revealing new opportunities to overcome bleomycin-induced pulmonary toxicity” (Bioorg Med Chem Lett, 2018).

With `Cc1c(N)nc([C@H](CC(N)=O)NC[C@H](N)C(N)=O)nc1C(=O)N[C@H](C(=O)N[C@H](C)[C@@H](O)CC(=O)N[C@H](C(=O)NCCc1nc(-c2nc(C(=O)NCCCC(N)CC(=O)NCCCNCCCCN)cs2)cs1)[C@@H](C)O)[C@@H](O[C@@H]1O[C@@H](CO)[C@@H](O)[C@H](O)[C@@H]1O[C@H]1O[C@H](CO)[C@@H](O)[C@H](OC(N)=O)[C@@H]1O)c1c[nH]cn1` (stereo partly drawn), the “fold change (FC)” value at Bleomycin hydrolase [1] turned out to be 0.06.

For `Cc1c(N)nc([C@H](CC(N)=O)NC[C@H](N)C(N)=O)nc1C(=O)N[C@H](C(=O)N[C@H](C)[C@@H](O)CC(=O)N[C@H](C(=O)NCCc1nc(-c2nc(C(=O)NCCCC(N)CC(=O)NCCCNCCCCN)cs2)cs1)[C@@H](C)O)[C@@H](O[C@@H]1O[C@@H](C)[C@@H](O)[C@H](O)[C@@H]1O[C@H]1O[C@H](CO)[C@@H](O)[C@H](OC(N)=O)[C@@H]1O)c1c[nH]cn1` (stereo partly drawn), the “fold change (FC)” value on Bleomycin hydrolase [1] stood at 0.06.

For `Cc1c(N)nc([C@H](CC(N)=O)NC[C@H](N)C(N)=O)nc1C(=O)N[C@H](C(=O)N[C@H](C)[C@@H](O)[C@H](C)C(=O)N[C@H](C(=O)NCCc1nc(-c2nc(C(=O)NCCC[S+](C)C)cs2)cs1)[C@@H](C)O)[C@@H](O[C@@H]1O[C@@H](C)[C@@H](O)[C@H](O)[C@@H]1O[C@H]1O[C@H](CO)[C@@H](O)[C@H](OC(N)=O)[C@@H]1O)c1c[nH]cn1`, the “fold change (FC)” value at Bleomycin hydrolase [1] is given as 0.11.

Consider BLEOMYCIN, for which, at Bleomycin hydrolase [2], the Kcat stood at 4 s⁻¹ and the Km – broadly, the concentration of substrate that gives half-maximal velocity – amounted to 592 µM. Moreover, the Kcat/Km on Bleomycin hydrolase [3] was 6.7 ×10⁻³ /microM/s. Besides, the “fold change (FC)” value on Bleomycin hydrolase [1] was 0.12. Moreover, the Kcat/Km at Bleomycin hydrolase [4] was found to be 5000 M⁻¹ s⁻¹.

Take `Cc1c(N)nc([C@H](CC(N)=O)NC[C@H](N)C(N)=O)nc1C(=O)N[C@H](C(=O)N[C@H](C)[C@@H](O)[C@H](C)C(=O)N[C@H](C(=O)NCCc1nc(-c2nc(C(=O)NCCC(=N)N)cs2)cs1)[C@@H](C)O)[C@@H](O[C@@H]1O[C@@H](CO)[C@@H](O)[C@H](O)[C@@H]1O[C@H]1O[C@H](CO)[C@@H](O)[C@H](OC(N)=O)[C@@H]1O)c1c[nH]cn1`: the “fold change (FC)” value at Bleomycin hydrolase [1] is listed as 0.19.

Turning to `Cc1c(N)nc([C@H](CC(N)=O)NC[C@H](N)C(N)=O)nc1C(=O)N[C@H](C(=O)N[C@H](C)[C@@H](O)[C@H](C)C(=O)N[C@H](C(=O)NCCc1nc(-c2nc(C(=O)NCCC(=N)N)cs2)cs1)[C@@H](C)O)[C@@H](O[C@@H]1O[C@@H](C)[C@@H](O)[C@H](O)[C@@H]1O[C@H]1O[C@H](CO)[C@@H](O)[C@H](OC(N)=O)[C@@H]1O)c1c[nH]cn1`, the “fold change (FC)” value at Bleomycin hydrolase [1] is 0.28.

B1: Bleomycin hydrolase (Homo sapiens) (protein)
chain: MSSSGLNSEKVAALIQKLNSDPQFVLAQNVGTTHDLLDICLKRATVQRAQHVFQHAVPQEGKPITNQKSSGRCWIFSCLNVMRLPFMKKLNIEEFEFSQSYLFFWDKVERCYFFLSAFVDTAQRKEPEDGRLVQFLLMNPANDGGQWDMLVNIVEKYGVIPKKCFPESYTTEATRRMNDILNHKMREFCIRLRNLVHSGATKGEISATQDVMMEEIFRVVCICLGNPPETFTWEYRDKDKNYQKIGPITPLEFYREHVKPLFNMEDKICLVNDPRPQHKYNKLYTVEYLSNMVGGRKTLYNNQPIDFLKKMVAASIKDGEAVWFGCDVGKHFNSKLGLSDMNLYDHELVFGVSLKNMNKAERLTFGESLMTHAMTFTAVSEKDDQDGAFTKWRVENSWGEDHGHKGYLCMTDEWFSEYVYEVVVDRKHVPEEVLAVLEQEPIILPAWDPMGALAE
For the molecule B1, the Km in series [5] is 190 µM; in series [6] it was 720 µM; in [7], 743 µM; in series [8], 942 µM; in series [9] it was 854 µM; in [10], 805 µM. Moreover, the kcat (commonly the maximal rate divided by the concentration of active sites) stood at 11 s⁻¹ in [5]; 2.5 s⁻¹ in [6]; 2.4 s⁻¹ in [7]; 15 s⁻¹ in [8]; 9.8 s⁻¹ in [9]; 4.9 s⁻¹ in series [10]. For the same molecule, the kcat/Km – broadly, the turnover number divided by the Michaelis constant – in series [6] is 3500 M⁻¹ s⁻¹; in series [7], 3200 M⁻¹ s⁻¹; in series [8] it was 16000 M⁻¹ s⁻¹; in [9] it was 11000 M⁻¹ s⁻¹; in series [10], 6100 M⁻¹ s⁻¹; in series [11], 12000 M⁻¹ s⁻¹.
